One may read the stoichiometry N as a count of units in the complex or per binding partner.

This series deals with the molecule itself. In words: non-reducing SDS-PAGE with immunoblot; iMEF stably expressing ev or m152-V5, stimulated with 10 μg/ml ISD (also with Brefeldin A); lysis in 25 mM Tris-HCl pH 7.6, 150 mM NaCl, 1% IGEPAL CA-630, 1% sodium deoxycholate, 0.1% SDS; anti-STING blot for STING dimers.

B1: endogenous murine STING (natural protein)
chain: MPYSNLHPAIPRPRGHRSKYVALIFLVASLMILWVAKDPPNHTLKYLALHLASHELGLLLKNLCCLAEELCHVQSRYQGSYWKAVRACLGCPIHCMAMILLSSYFYFLQNTADIYLSWMFGLLVLYKSLSMLLGLQSLTPAEVSAVCEEKKLNVAHGLAWSYYIGYLRLILPGLQARIRMFNQLHNNMLSGAGSRRLYILFPLDCGVPDNLSVVDPNIRFRDMLPQQNIDRAGIKNRVYSNSVYEILENGQPAGVCILEYATPLQTLFAMSQDAKAGFSREDRLEQAKLFCRTLEEILEDVPESRNNCRLIVYQEPTDGNSFSLSQEVLRHIRQEEKEEVTMNAPMTSVAPPPSVLSQEPRLLISGMDQPLPLRTDLI
notes: stimulator of interferon genes (STING), endogenous in immortalized B6J mouse embryonic fibroblasts; Dimers seen on non-reducing SDS-PAGE after ISD stimulation; also called Endogenous STING; source: endogenous, iMEF lysate
As for B1, the “stoichiometry N” value was determined as 2.

Source of the values: paper PMC6396373, “The herpesviral antagonist m152 reveals differential activation of STING‐dependent IRF and NF‐κB signaling and STING's dual role during MCMV infection” (The EMBO Journal, 2019).
